Assay results from patent publication US20050037969A1 (ARBOR VITA, published 2005).
Ends that are not written are not given here. * marks the point of attachment. Biotin = O=C1N[C@H]2[C@H](CS[C@H]2CCCCC(=O)*)N1

T1: ConEn PDZ-GST fusion protein (Homo sapiens (Human), UniProt Q969H4 193-287)
T1 construct: The label ConEn is not explained in the excerpts
T1 sequence: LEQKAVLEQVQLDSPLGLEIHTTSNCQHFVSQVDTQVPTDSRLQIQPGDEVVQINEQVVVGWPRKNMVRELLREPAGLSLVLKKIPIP

T2: GST-PTN-4 PDZ domain fusion protein (Homo sapiens (Human), UniProt P29074 517-605)
T2 construct: also called protein-tyrosine phosphatase meg1; not shown: glutathione S-transferase encoded by vector pGEX-3X (Pharmacia)
T2 sequence: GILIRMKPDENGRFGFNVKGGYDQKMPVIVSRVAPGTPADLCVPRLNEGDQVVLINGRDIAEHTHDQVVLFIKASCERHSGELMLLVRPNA

T3: KIAA0807 (PDZ domain)-GST fusion protein (human, UniProt Q6P0Q8 1104-1192)
T3 construct: also called K807; KIAA807; not shown: glutathione S-transferase encoded by vector pGEX-3X (Pharmacia)
T3 sequence: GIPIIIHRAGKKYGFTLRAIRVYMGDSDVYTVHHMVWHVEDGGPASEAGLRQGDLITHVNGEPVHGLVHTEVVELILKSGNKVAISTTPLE

T4: MINT3 PDZ-GST fusion protein
T4 construct: Order of GST and PDZ part and limits not seen in the excerpts
T4 chain: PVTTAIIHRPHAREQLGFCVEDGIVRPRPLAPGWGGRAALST

T5: K858 PDZ-GST fusion protein (Homo sapiens (Human), UniProt Q8WWI1 1038-1131)
T5 construct: Order of GST and PDZ part and limits not seen in the excerpts
T5 sequence: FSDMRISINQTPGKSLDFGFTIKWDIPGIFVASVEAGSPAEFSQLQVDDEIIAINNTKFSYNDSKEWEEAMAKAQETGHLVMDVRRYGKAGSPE

T6: TAX-IP2L PDZ-GST fusion protein (Homo sapiens (Human), UniProt Q8TF64 107-197)
T6 construct: Order of GST and PDZ part and limits not seen in the excerpts
T6 sequence: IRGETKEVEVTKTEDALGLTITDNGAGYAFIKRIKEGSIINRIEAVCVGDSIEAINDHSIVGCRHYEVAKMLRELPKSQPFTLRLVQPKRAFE

T7: GST-RGS12 PDZ domain fusion protein (human, UniProt O14924 17-85)
T7 construct: also called human regulator of G-protein signalling 12; not shown: glutathione S-transferase encoded by vector pGEX-3X (Pharmacia)
T7 sequence: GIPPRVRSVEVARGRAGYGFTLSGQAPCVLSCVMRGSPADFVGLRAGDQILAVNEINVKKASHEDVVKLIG

T8: GST-AF6 PDZ domain fusion protein (Homo sapiens (Human), UniProt P55196 1001-1093)
T8 construct: also called af-6 protein; not shown: glutathione S-transferase encoded by vector pGEX-3X (Pharmacia)
T8 sequence: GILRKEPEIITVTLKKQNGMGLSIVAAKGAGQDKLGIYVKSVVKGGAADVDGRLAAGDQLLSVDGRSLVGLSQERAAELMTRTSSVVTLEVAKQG

T9: GST-PDZK1 fusion protein (PDZ domains 2-4) (Homo sapiens, UniProt Q5T2W1 134-457)
T9 construct: not shown: glutathione S-transferase encoded by vector pGEX-3X (Pharmacia)
T9 sequence: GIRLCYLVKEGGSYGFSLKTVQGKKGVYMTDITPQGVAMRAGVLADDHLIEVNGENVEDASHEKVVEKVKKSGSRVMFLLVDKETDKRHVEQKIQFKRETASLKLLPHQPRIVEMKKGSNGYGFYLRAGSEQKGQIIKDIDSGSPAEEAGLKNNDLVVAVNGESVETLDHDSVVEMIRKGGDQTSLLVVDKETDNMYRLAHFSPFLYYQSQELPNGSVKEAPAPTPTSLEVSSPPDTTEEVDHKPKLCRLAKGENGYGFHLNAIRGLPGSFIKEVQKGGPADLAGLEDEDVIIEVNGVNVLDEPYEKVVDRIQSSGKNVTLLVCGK

T10: GST-TAX-IP43 PDZ domain fusion protein (human, UniProt Q13884 109-180)
T10 construct: also called TAX43; not shown: glutathione S-transferase encoded by vector pGEX-3X (Pharmacia)
T10 sequence: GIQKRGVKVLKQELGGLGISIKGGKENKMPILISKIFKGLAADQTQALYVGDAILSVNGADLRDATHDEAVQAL

T11: GST-MPP1 PDZ domain fusion protein (Homo sapiens (Human), UniProt Q00013 67-152)
T11 construct: also called p55; 55 Kd erythrocyte membrane protein; not shown: glutathione S-transferase encoded by vector pGEX-3X (Pharmacia)
T11 sequence: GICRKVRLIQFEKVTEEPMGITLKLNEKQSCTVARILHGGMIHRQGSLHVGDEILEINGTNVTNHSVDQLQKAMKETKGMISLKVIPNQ

T12: GST-prIL16 fusion protein (PDZ domains 1-2) (Homo sapiens (Human), UniProt Q14005 1111-1324)
T12 construct: also called putative interleukin 16 precursor; not shown: glutathione S-transferase encoded by vector pGEX-3X (Pharmacia)
T12 sequence: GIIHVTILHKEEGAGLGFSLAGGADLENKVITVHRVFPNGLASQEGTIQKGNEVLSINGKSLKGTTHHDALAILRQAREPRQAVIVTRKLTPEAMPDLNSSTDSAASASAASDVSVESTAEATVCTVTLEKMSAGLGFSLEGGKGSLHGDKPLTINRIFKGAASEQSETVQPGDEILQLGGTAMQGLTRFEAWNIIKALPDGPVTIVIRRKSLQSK

B1: DOCK2 C-terminal peptide AA40L, biotinylated (peptide)
peptide: Biotin-LASKSAEEGKQIPDSLSTDL
B2: DNAM-1 C-terminal peptide AA22L, biotinylated (peptide)
peptide: Biotin-TREDIYVNYPTFSRRPKTRV
B3: Glycophorin C C-terminal peptide AA37L, biotinylated (peptide)
peptide: Biotin-QGDPALQDAGDSSRKEYFI
notes: also called GC
B4: CDW125 (IL5R) C-terminal peptide AA28L, biotinylated (peptide)
peptide: Biotin-EVICYIEKPGVETLEDSVF

biological target: T1, ConEn PDZ-GST fusion protein; assay: A/G assays

| binding result | Binder |
| --- | --- |
| no binding | B1 |
| no binding | B2 |
| no binding | B3 |
| no binding | B4 |

biological target: T2, GST-PTN-4 PDZ domain fusion protein; assay: A/G assays

| binding result | Binder |
| --- | --- |
| no binding | B1 |
| no binding | B2 |
| no binding | B3 |

biological target: T3, KIAA0807 (PDZ domain)-GST fusion protein; assay: A/G assays

| binding result | Binder |
| --- | --- |
| no binding | B2 |
| no binding | B3 |
| no binding | B4 |

Biological target: T4, MINT3 PDZ-GST fusion protein
Assay: A/G assays

| binding result | Binder |
| --- | --- |
| no binding | B1 |
| no binding | B2 |
| no binding | B3 |
| no binding | B4 |

biological target: T13, K316 PDZ-GST fusion protein (Homo sapiens (Human), UniProt Q14CM0 72-159); assay: A/G assays
T13 construct: Order of GST and PDZ part and limits not seen in the excerpts
T13 sequence (Q14CM0 72-159 limits assumed): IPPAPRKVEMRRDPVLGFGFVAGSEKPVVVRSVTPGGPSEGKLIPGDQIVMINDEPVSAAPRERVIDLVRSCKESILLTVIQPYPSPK

| binding result | Binder |
| --- | --- |
| no binding | B1 |
| no binding | B2 |
| no binding | B3 |
| no binding | B4 |

biological target: T5, K858 PDZ-GST fusion protein; assay: A/G assays

| binding result | Binder |
| --- | --- |
| no binding | B1 |
| no binding | B2 |
| no binding | B3 |
| no binding | B4 |

biological target: T6, TAX-IP2L PDZ-GST fusion protein; assay: A/G assays

| binding result | Binder |
| --- | --- |
| no binding | B1 |
| no binding | B2 |
| no binding | B3 |
| no binding | B4 |

biological target: T14, GST-TIAM1 PDZ domain fusion protein (Homo sapiens (Human), UniProt Q13009 845-931); assay: A/G assays
T14 construct: also called TLAM1; T-lymphoma invasion and metastasis inducing protein 1; not shown: glutathione S-transferase encoded by vector pGEX-3X (Pharmacia)
T14 sequence (Q13009 other isoform, or with tags, fused parts or gaps): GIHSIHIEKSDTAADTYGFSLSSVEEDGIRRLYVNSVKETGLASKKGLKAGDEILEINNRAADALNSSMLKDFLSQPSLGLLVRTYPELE

| binding result | Binder |
| --- | --- |
| no binding | B1 |
| no binding | B2 |
| no binding | B3 |
| no binding | B4 |

biological target: T15, PICK1 PDZ-GST fusion protein (Bos taurus (Bovine), UniProt Q2T9M1 17-105); assay: A/G assays
T15 construct: Order of GST and PDZ part and limits not seen in the excerpts
T15 sequence (Q2T9M1 other isoform, or with tags, fused parts or gaps limits assumed): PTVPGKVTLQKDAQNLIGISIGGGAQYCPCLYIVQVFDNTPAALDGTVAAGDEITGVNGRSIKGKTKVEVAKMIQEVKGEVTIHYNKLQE

| binding result | Binder |
| --- | --- |
| no binding | B1 |
| no binding | B2 |
| no binding | B3 |
| no binding | B4 |

biological target: T16, NSP PDZ-GST fusion protein (Homo sapiens (Human), UniProt Q92743 370-466); assay: A/G assays
T16 construct: The label NSP is not explained in the excerpts
T16 sequence (Q92743 other isoform, or with tags, fused parts or gaps limits assumed): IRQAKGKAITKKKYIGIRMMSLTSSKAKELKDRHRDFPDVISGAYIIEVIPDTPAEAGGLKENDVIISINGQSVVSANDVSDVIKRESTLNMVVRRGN

| binding result | Binder |
| --- | --- |
| no binding | B1 |
| no binding | B2 |
| no binding | B3 |
| no binding | B4 |

biological target: T7, GST-RGS12 PDZ domain fusion protein; assay: A/G assays

| binding result | Binder |
| --- | --- |
| no binding | B1 |
| no binding | B3 |

biological target: T8, GST-AF6 PDZ domain fusion protein; assay: A/G assays

| binding result | Binder |
| --- | --- |
| no binding | B1 |
| no binding | B4 |

biological target: T9, GST-PDZK1 fusion protein (PDZ domains …); assay: A/G assays

| binding result | Binder |
| --- | --- |
| no binding | B1 |
| no binding | B2 |
| no binding | B3 |
| no binding | B4 |

biological target: T10, GST-TAX-IP43 PDZ domain fusion protein; assay: A/G assays

| binding result | Binder |
| --- | --- |
| no binding | B1 |
| no binding | B2 |
| no binding | B3 |
| no binding | B4 |

biological target: T11, GST-MPP1 PDZ domain fusion protein; assay: A/G assays

| binding result | Binder |
| --- | --- |
| no binding | B1 |
| no binding | B4 |

biological target: T12, GST-prIL16 fusion protein (PDZ domains …); assay: A/G assays

| binding result | Binder |
| --- | --- |
| no binding | B1 |
| no binding | B2 |
| no binding | B3 |
| no binding | B4 |
